Data set [1] deals with the molecule itself. The experiment in a line: SEC; Superdex 200 HR 10/30, 50 mM Tris pH 8.3/0.15 M NaCl, 0.3 mL/min; native mass against protein standards. A general note: SEC sorts molecules by how far they enter the pores of the column.
Data set [2] deals with the molecule itself. Put plainly: SEC; Superdex 200 HR 10/30, 50 mM Tris pH 7.0/0.15 M NaCl, 0.3 mL/min; native mass against protein standards.

B1: recombinant mature wild-type fructose-1,6-bisphosphatase 1 (cFBP1) of Arabidopsis (enzyme, Arabidopsis thaliana, UniProt P25851 60-417, looked up)
chain: AVAADAAETKTAARKKSGYELQTLTGWLLRQEMKGEIDAELTIVMSSISLACKQIASLVQRAGISNLTGVQGAVNIQGEDQKKLDVISNEVFSNCLRSSGRTGIIASEEEDVPVAVEESYSGNYVVVFDPLDGSSNIDAAVSTGSIFGIYSPNDECIVDDSDDISALGSEEQRCIVNVCQPGNNLLAAGYCMYSSSVIFVLTLGKGVFSFTLDPMYGEFVLTQENIEIPKAGRIYSFNEGNYQMWDDKLKKYIDDLKDPGPTGKPYSARYIGSLVGDFHRTLLYGGIYGYPRDAKSKNGKLRLLYECAPMSFIVEQAGGKGSDGHSRVLDIQPTEIHQRVPLYIGSTEEVEKLEKYLA
notes: Fructose-1,6-bisphosphatase 1, chloroplastic (cFBP1), Arabidopsis thaliana, gene At3g54050; ca. 40 kDa on SDS-PAGE; numbers count on: the mature protein; The number of chains depends on pH: tetramer at pH 7.0, dimer at pH 8.3, mainly dimer at pH 7.8 when fresh; Expressed from pDEST17, which to my knowledge adds an N-terminal His6; No step to cleave the tag is described; also called WT cFBP1; WT
B1: the “stoichiometry N” value in data set [1] is 2; in data set [2] it was 4.

B2: recombinant mature C95S variant of fructose-1,6-bisphosphatase 1 (cFBP1) of Arabidopsis (enzyme, Arabidopsis thaliana, UniProt P25851 60-417, looked up)
chain: AVAADAAETKTAARKKSGYELQTLTGWLLRQEMKGEIDAELTIVMSSISLACKQIASLVQRAGISNLTGVQGAVNIQGEDQKKLDVISNEVFSNSLRSSGRTGIIASEEEDVPVAVEESYSGNYVVVFDPLDGSSNIDAAVSTGSIFGIYSPNDECIVDDSDDISALGSEEQRCIVNVCQPGNNLLAAGYCMYSSSVIFVLTLGKGVFSFTLDPMYGEFVLTQENIEIPKAGRIYSFNEGNYQMWDDKLKKYIDDLKDPGPTGKPYSARYIGSLVGDFHRTLLYGGIYGYPRDAKSKNGKLRLLYECAPMSFIVEQAGGKGSDGHSRVLDIQPTEIHQRVPLYIGSTEEVEKLEKYLA
notes: Fructose-1,6-bisphosphatase 1, chloroplastic (cFBP1), Arabidopsis thaliana, gene At3g54050; Cys95 replaced by Ser; numbers count on: the mature protein; The number of chains depends on pH: tetramer at pH 7.0, dimer at pH 8.3, mainly tetramer at pH 7.8; Expressed from pDEST17, which to my knowledge adds an N-terminal His6; No step to cleave the tag is described; also called C95S cFBP1; cFBP1 C95S
Turning to B2, the results for the “stoichiometry N” value in data set [1] and in data set [2] were 2 and 4, respectively.

As usually defined, the stoichiometry N is a count of units in the complex or per binding partner.

For the origin of these results see PMC12319266, “The Highly Conserved Cys95 Residue of Fructose‐1,6‐Bisphosphatase 1 Mediates the pH‐Driven Structure and Activity of the Enzyme and Photosynthesis” (Plant, Cell & Environment, 2025).
